Reference: PMC8698692, “Generation of a Novel High-Affinity Antibody Binding to PCSK9 Catalytic Domain with Slow Dissociation Rate by CDR-Grafting, Alanine Scanning and Saturated Site-Directed Mutagenesis for Favorably Treating Hypercholesterolemia” (Biomedicines, 2021)

What was measured:
[1] = target: T1, human proprotein convertase subtilisin/kexin type 9 (hPCSK9), recombinant (Homo sapiens, UniProt Q8NBP7, biotinylated with a biotinylation kit for the BLI assay only (sites not given)); experiment: BLI; ForteBio Octet QKe; biotinylated hPCSK9 (50 μg/mL) immobilised on streptavidin biosensors; 2-fold dilutions of antibody (scFvs 6000-93.75 nM, mAbs 800-12.5 nM), association 300 s or longer, dissociation 600 s in SD buffer (PBS, 0.02% Tween 20, 0.1% BSA, pH 7.4); global fit; details: both partners purified
T1 construct: signal peptide in the construct; source: CHO-3E7, transiently transfected (pTT5-hPCSK9), supernatant purified (Ni-IMAC, Superdex 200 SEC)

[2] = target: T1, human proprotein convertase …; experiment: ELISA; non-competitive ELISA; hPCSK9 coated at 1 μg/mL and 2 μg/mL; purified m5E12 at 10^-1 to 10^5 ng/mL; HRP goat anti-mouse IgG; Kaff = (n − 1)/2(n[Ab']t − [Ab]t); details: both partners purified

T1 sequence (Q8NBP7 31-692): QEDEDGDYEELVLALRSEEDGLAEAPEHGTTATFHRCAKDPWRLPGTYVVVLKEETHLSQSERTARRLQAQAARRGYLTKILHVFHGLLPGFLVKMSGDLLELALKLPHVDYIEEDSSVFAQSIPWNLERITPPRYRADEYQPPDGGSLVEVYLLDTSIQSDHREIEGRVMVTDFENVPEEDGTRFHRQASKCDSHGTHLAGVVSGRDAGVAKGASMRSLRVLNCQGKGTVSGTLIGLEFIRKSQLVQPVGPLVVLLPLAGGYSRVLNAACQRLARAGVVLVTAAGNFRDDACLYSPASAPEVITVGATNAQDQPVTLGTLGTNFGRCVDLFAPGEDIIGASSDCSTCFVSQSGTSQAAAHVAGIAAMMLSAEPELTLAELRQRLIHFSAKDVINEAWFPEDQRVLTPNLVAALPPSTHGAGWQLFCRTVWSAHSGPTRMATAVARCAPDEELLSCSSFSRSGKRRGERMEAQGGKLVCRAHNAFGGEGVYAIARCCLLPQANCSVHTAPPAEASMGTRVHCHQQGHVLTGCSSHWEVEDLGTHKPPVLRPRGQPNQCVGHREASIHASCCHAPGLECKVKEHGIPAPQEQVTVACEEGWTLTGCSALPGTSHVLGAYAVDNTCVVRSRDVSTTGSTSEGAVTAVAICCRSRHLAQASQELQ

B1: m5E12scFv, murine 5E12 single-chain variable fragment (scFv, V domains shown)
VH: EVQLEQSGAELVKPGASVKLSCKASGYTFTSYWMHWVKQRPGQGLEWIGEINPSNGRTDHSEKFKNKATLTVDKSSTTAYLQLSSLTSEDSSVYYCARFHYDYDYFDYWGQGTTLTVSS
VL: DIVITQSTKFMSTSVGDRVSVTCKASRNVGNSVGWYQQKPGQSPKILIYSASYRYSGVHDRFTGSGSGTDFTLTISNVQSEDLAEYFCQQYNRYPLTFGEGTKLELK
notes: VH of m5E12; (Gly4Ser)3 linker between VH and VL; VL of m5E12; Cloned in pET-27b with the pelB signal peptide; isolated from the periplasm; also called murine 5E12 scFv; source: E. coli BL21 (DE3), periplasm, purified (Ni-NTA, Superdex 75 SEC)
A koff [1] of 0.00744 s⁻¹ was found for B1 in this work.

B2: m5E12, murine monoclonal antibody against hPCSK9 (IgG1, kappa) (antibody, V domains shown)
VH: EVQLEQSGAELVKPGASVKLSCKASGYTFTSYWMHWVKQRPGQGLEWIGEINPSNGRTDHSEKFKNKATLTVDKSSTTAYLQLSSLTSEDSSVYYCARFHYDYDYFDYWGQGTTLTVSS
VL: DIVITQSTKFMSTSVGDRVSVTCKASRNVGNSVGWYQQKPGQSPKILIYSASYRYSGVHDRFTGSGSGTDFTLTISNVQSEDLAEYFCQQYNRYPLTFGEGTKLELK
notes: VH of m5E12; mouse IgG1 heavy-chain constant region (isotype found with a kit; BALB/c mice); VL of m5E12; mouse kappa light-chain constant region (isotype found with a kit); Mouse IgG1 kappa; also called mAb 5E12; source: hybridoma 5E12 supernatant (screening ELISA); mouse ascites, purified (protein A)
A Ka [2] of 1.04e+09 M⁻¹ was found for B2 in this work.

B3: h5E12scFv, humanized 5E12 scFv by CDR grafting without back mutation (scFv, V domains shown)
VH: QVQLVQSGAEVKKPGASVKVSCKASGYTFTSYWMHWVRQAPGQGLEWMGEINPSNGRTDHSEKFKNRVTMTRDTSTSTVYMELSSLRSEDTAVYYCARFHYDYDYFDYWGQGTLVTVSS
VL: DIVMTQSPSSLSASVGDRVTITCKASRNVGNSVGWYQQKPGKAPKLLIYSASYRYSGVPSRFSGSGSGTDFTLTISSLQPEDFATYYCQQYNRYPLTFGQGTKVEIK
notes: VH of h5E12scFv: CDRs of m5E12 grafted onto the human heavy chain GenBank AMK70123.1; (Gly4Ser)3 linker; the format VH-(Gly4Ser)3-VL is told for m5E12scFv, of which this is the humanized form; VL of h5E12scFv: CDRs of m5E12 grafted onto the human light chain GenBank APZ85158.1; Cloned in pET-27b with the pelB signal peptide; isolated from the periplasm; source: E. coli BL21 (DE3), periplasm, …
A Kd [1] of 171 nM and a koff [1] of 0.00108 s⁻¹ were found for B3 in this work.

B4: h5E12scFv-bm, humanized 5E12 scFv by CDR grafting with back mutation (scFv, V domains shown)
VH: EVQLVQSGAEVKKPGASVKVSCKASGYTFTSYWMHWVKQAPGQGLEWIGEINPSNGRTDHSEKFKNKATMTVDTSTSTAYLELSSLRSEDTSVYYCARFHYDYDYFDYWGQGTLVTVSS
VL: DIVITQSTSSLSASVGDRVTITCKASRNVGNSVGWYQQKPGKAPKILIYSASYRYSGVHSRFSGSGSGTDFTLTISSLQPEDFAEYFCQQYNRYPLTFGEGTKVEIK
notes: (Gly4Ser)3 linker; the format VH-(Gly4Ser)3-VL is told for m5E12scFv, of which this is a humanized form; Cloned in pET-27b with the pelB signal peptide; isolated from the periplasm; source: E. coli BL21 (DE3), periplasm, purified (Ni-NTA, Superdex 75 SEC)
A koff [1] of 0.01 s⁻¹ was found for B4 in this work.
